# Legend:
# [1] = tested on: NB1 cells; experiment: Crizotinib titration and co-titration with ALK antibodies, killing of NB1 cells; assay type: cell-based, human; settings: co-titration of crizotinib with the antibody
# [2] = tested on: ALK (total protein levels in NB1 cells); experiment: ALK turnover (total protein levels) by Western blot, 24 hour treatment of NB1 cells; assay type: cell-based, human; parameters: key: − none; + weak; ++ moderate; +++ strong
# Source text: FIG. 5 depicts a Western blot of a panel of ALK antibodies.
# See also Table 18, below.
# [3] = target: murine ALK (purified mouse ALK antigen) (Mus musculus, UniProt P97793); experiment: Mouse ALK cross-reactivity, solid-state ELISA; assay type: binding; parameters: key: − none; + weak; ++ moderate; +++ strong; settings: cross-reactivity with murine ALK
# Protocol: Purified mAbs were evaluated for their ability to bind murine ALK by solid-state ELISA, or flow cytometry on Neuro-2a cells that express low levels of endogenous murine ALK. […]
# [4] = target: C-terminal region of human ALK ECD (T637-S1038) (Homo sapiens, UniProt Q9UM73); experiment: Competitive binding assay (epitope binning) by flow cytometry; settings: antibodies to the C-terminal region
# Protocol: Antibodies that bind to the C-terminal region of human ALK ECD (T637-S1038) were further characterized using a competitive binding assay. A pairwise matrix approach was used whereby each antibody was fluorescently labeled and tested for its ability to bind to ALK-expressing cells pre-incubated with an unlabeled antibody. The ability of both antibodies to bind the C-terminal domain simultaneously was tested via flow cytometry. If both antibodies bound simultaneously, they were put into different bins and considered to belong to a separate epitope class.
# [5] = target: T1, total ALK and phosphorylated ALK in tumor homogenates (Homo sapiens, UniProt Q9UM73, F1174L); experiment: Western blot of tumor homogenates from the PDX model; assay type: in vivo, mouse; settings: tumors harvested 72 hours after the second dose, vs control IgG1
# T1 construct: Western blot analysis of homogenates of tumors harvested 72 hours after the second dose; from tissue; host or cells: patient-derived (PDX) neuroblastoma tumors grown in mice
# Source text: (§1) FIGS. 8A-B depict the in vivo antitumor activity of the Ab326 anti-ALK antibody in a patient-derived (PDX) neuroblastoma ALK F1174L tumor model compared with control IgG1 (A) and a western blot of tumor homogenates harvested from the patient-derived tumor model showing relative levels of total ALK and phosphorylated ALK in Ab326-treated and control IgG1-treated mice (B). GAPDH is included in the western blot of FIG. 8B as a control for protein level.
# (§2) The effect of Ab326, generated in Example 1, on the patient-derived NB tumor mouse model was consistent with its inhibitory effect on phosphorylation of ALK and downstream signaling (FIG. 8A). Tumor volume was reduced over a two-week period in comparison with a control IgG1 antibody.
# [6] = tested on: ALK (basal phosphorylation in NB1 cells); experiment: Western blot of ALK phosphorylation in NB1 cells; assay type: cell-based, human
# Protocol: Lysed cells were subjected to SDS-PAGE, transferred to nitrocellulose and immunoblotted with antibodies against total, and phospho-specific ALK, AKT, and MAPK. FIG. 4B depicts an ELISA of NB1 cells grown in media with reduced serum and treated with 30-100 nM of each antibody for 1-2 hours. Cell lysates were incubated on ELISA plates with an anti-ALK antibody, followed by incubation with a pan phosphotyrosine antibody coupled to HRP.
# Cell lysates were subjected to SDS-PAGE and transferred to nitrocellulose. Immunoblotting was performed with antibodies against total, and phospho-specific ALK, AKT, and MAPK (purchased from Cell Signaling and utilized per manufacturer's instructions). HRP (horse radish peroxidase)-conjugated secondary antibodies (Thermo Scientific, Waltham, Mass.) were used along with Supersignal West Pico Chemiluminescent Substrate (Thermo Scientific, Waltham, Mass.) to image blots.
# Anti-ALK monoclonal antibodies generated in Example 1 were evaluated via Western blotting for their ability to activate or inhibit basal levels of ALK phosphorylation in NB1 cells (FIG. 4A). A subset of ALK antibodies stimulated ALK tyrosine phosphorylation and a different subset of antibodies inhibited basal levels of ALK phosphorylation. See also Table 18, below. […] That is, ALK antibodies that stimulated ALK tyrosine phosphorylation increased MAPK and AKT phosphorylation, whereas ALK antibodies that inhibited ALK tyrosine phosphorylation decreased basal levels of MAPK and AKT phosphorylation (FIG. 4A). Similar results were obtained in ELISA-based ALK phosphorylation assays from lysates of NB1 cells treated with ALK antibodies (FIG. 4B).
# [7] = tested on: patient-derived (PDX) neuroblastoma ALK F1174L tumor; experiment: Patient-derived (PDX) neuroblastoma ALK F1174L tumor model; assay type: in vivo, mouse; settings: two weekly intraperitoneal doses at 10 mg/kg, two-week period, in comparison with control IgG1
# Source text: as §1
# Patient-derived (PDX) neuroblastoma tumor model mice were produced. […] Mice received two weekly intraperitoneal doses of Ab326 or a control IgG1 at 10 mg/kg.
# as §2
# [8] = tested on: ALK on the surface of NB1 cells; experiment: KD determination by flow cytometry on NB1 cells; assay type: binding; settings: NB1 (human) cells, FACS, mean
# Protocol: FIG. 3 depicts the apparent affinities (KD) of ALK antibodies for ALK expression on the surface of NB1 cells. KD was determined by flow cytometry. Titration of each antibody on NB1 cells for 2-4 hours at 4° C. was followed by incubation with a fluorescently-labeled secondary antibody. The normalized mean fluorescent intensity […] shown as “% Max binding” was plotted as a function of antibody concentration.
# Flow cytometry was utilized to measure the affinity at steady state (KD) with which different ALK antibodies bind to ALK on the surface of NB1 cells (FIG. 3). Titration of each antibody on NB1 cells for 2-4 hours at 4° C. was followed by incubation with a fluorescently-labeled secondary antibody. The normalized mean fluorescent intensity (MFI) shown as “% Max binding” was plotted as a function of antibody concentration. The data were fit to a one site binding isotherm using GraphPad Prism, from which affinity values were derived.
# (§3) Amino acid residues that differ between rat ALK and mouse ALK are boxed. KD values for both NB1 (human) cells and Neuro2a (mouse) cells were also determined.
# [9] = target: T2, cell surface mALK on Neuro2a cells (Mus musculus, UniProt P97793); experiment: KD of humanized antibodies on Neuro2a (mouse) cells; assay type: binding; settings: FACS, mean
# T2 construct: Neuro-2a cells that express low levels of endogenous murine ALK; endogenous in cells; host or cells: Neuro-2a (Neuro2a) mouse neuroblastoma cells
# Protocol: as §3
# [10] = tested on: NB1 cells; experiment: NB1 cell morphology; assay type: cell-based, human; settings: NB1 cells treated with antibody
# Source text: By contrast, treatment with Ab324, an ALK agonist, caused the cells to spread out.
# T1 sequence (Q9UM73 19-1620 F1174L): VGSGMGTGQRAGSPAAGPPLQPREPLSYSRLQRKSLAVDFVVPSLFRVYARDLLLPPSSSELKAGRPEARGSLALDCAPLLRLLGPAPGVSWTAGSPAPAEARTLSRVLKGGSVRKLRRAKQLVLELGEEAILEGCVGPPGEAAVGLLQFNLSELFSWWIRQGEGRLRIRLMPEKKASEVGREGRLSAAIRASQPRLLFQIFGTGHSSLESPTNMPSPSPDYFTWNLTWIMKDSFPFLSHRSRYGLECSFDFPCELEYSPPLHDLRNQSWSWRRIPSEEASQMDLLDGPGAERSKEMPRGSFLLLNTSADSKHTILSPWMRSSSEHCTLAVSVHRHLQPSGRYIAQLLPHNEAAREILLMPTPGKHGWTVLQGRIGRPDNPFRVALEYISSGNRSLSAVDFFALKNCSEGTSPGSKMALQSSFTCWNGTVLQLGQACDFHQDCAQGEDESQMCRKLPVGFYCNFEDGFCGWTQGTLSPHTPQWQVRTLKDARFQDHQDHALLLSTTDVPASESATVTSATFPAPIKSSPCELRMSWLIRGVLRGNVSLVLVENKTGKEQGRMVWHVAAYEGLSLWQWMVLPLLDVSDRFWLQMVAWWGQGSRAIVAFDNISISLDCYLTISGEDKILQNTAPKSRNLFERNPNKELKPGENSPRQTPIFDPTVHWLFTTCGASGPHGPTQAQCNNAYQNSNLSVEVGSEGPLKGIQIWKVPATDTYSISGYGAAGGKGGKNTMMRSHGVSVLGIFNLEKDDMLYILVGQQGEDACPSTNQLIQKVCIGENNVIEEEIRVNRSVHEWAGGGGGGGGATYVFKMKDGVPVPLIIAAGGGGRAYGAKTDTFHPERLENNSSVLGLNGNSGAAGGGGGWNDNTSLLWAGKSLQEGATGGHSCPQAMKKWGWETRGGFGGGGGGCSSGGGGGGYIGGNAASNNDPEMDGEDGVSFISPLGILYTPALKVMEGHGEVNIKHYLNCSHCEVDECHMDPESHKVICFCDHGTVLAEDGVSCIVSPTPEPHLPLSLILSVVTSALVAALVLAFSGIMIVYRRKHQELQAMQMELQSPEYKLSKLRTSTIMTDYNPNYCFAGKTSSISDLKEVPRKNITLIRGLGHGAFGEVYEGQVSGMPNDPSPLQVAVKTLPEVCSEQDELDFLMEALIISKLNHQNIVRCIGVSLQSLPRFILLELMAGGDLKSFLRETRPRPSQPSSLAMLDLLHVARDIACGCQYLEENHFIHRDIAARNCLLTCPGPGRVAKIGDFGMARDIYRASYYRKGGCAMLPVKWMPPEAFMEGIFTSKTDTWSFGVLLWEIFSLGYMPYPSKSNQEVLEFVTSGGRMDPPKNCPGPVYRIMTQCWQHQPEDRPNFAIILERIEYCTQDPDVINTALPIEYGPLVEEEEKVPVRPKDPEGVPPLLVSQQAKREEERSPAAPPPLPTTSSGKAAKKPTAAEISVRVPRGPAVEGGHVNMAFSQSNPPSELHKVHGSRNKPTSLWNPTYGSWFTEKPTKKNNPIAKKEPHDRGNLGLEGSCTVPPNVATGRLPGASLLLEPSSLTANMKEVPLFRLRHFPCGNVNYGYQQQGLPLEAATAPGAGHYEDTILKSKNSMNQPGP
# T2 sequence (P97793 19-1621): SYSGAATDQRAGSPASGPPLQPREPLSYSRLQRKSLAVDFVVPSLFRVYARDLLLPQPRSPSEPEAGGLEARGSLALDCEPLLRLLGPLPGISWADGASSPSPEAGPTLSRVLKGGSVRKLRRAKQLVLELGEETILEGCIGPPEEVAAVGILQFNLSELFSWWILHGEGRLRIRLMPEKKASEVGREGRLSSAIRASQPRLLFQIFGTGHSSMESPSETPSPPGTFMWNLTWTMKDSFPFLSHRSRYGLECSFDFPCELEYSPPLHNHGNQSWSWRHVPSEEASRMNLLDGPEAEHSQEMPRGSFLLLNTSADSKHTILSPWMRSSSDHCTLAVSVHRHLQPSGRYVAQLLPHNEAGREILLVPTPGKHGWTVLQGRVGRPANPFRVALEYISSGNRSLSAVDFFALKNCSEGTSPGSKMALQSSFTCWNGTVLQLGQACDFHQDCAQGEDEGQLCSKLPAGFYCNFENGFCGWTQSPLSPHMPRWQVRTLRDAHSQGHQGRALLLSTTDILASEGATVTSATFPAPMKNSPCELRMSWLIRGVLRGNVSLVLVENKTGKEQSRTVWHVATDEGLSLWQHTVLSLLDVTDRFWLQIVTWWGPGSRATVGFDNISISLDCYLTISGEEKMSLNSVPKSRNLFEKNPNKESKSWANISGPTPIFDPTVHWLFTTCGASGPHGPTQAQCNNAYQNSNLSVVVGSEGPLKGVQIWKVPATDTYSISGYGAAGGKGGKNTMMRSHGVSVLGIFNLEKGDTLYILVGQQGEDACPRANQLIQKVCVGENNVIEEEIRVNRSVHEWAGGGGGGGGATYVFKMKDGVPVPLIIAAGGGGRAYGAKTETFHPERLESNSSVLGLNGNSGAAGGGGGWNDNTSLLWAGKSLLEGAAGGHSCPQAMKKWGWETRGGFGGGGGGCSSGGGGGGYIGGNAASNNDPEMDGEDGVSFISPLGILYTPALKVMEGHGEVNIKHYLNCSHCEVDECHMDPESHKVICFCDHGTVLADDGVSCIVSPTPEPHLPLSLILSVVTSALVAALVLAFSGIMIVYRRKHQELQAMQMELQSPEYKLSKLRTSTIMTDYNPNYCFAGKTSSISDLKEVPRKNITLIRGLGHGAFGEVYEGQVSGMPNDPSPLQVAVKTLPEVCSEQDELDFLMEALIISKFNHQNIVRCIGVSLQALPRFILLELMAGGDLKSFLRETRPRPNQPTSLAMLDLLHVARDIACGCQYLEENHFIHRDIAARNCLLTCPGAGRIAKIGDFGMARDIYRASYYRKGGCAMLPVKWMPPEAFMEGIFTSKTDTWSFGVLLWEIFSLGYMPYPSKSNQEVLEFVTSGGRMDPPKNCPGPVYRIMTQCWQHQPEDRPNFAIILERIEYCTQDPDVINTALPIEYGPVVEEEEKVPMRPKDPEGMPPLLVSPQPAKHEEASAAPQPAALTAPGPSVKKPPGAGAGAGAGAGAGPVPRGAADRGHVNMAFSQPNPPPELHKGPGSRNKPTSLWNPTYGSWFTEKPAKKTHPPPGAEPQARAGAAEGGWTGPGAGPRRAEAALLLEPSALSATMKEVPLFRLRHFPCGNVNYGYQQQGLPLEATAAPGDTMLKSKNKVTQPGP
# Chain of C-terminal region of human ALK ECD (T637-S1038) (Q9UM73 19-1620): as the sequence (Q9UM73 19-1620 F1174L) above, with L1156F counted along it
# Chain of murine ALK (purified mouse ALK antigen) (P97793 19-1042 limits assumed): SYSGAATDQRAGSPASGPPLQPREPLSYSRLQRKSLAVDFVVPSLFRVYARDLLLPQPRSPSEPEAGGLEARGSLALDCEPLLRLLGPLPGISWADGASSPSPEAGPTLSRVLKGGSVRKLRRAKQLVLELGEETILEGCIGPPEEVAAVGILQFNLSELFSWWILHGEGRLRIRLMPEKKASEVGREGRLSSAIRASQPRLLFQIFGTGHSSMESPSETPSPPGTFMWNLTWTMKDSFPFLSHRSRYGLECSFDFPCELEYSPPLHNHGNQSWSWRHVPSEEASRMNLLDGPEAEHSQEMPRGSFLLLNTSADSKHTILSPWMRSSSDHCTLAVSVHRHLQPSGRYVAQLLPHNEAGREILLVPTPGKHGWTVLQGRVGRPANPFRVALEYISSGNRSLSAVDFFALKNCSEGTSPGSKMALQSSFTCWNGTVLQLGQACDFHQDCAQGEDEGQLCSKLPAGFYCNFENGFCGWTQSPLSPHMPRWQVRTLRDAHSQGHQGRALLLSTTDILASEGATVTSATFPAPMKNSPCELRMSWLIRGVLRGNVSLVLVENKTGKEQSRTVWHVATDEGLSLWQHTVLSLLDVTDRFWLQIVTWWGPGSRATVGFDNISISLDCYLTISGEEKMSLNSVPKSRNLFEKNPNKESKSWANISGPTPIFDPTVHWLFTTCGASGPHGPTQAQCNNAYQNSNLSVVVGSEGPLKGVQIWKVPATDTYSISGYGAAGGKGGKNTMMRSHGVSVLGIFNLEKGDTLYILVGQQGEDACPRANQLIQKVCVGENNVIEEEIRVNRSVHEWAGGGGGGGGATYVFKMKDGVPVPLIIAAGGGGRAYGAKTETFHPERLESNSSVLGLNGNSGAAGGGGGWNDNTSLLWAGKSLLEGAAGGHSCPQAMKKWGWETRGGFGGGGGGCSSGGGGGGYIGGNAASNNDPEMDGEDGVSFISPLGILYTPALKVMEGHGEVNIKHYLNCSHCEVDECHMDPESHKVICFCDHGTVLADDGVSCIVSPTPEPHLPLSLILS
molecule,measurement,setting,value
"Ab326: anti-ALK monoclonal antibody; VL SEQ ID NO: 407, VH SEQ ID NO: 408 (antibody, V domains shown, VH domain - Ab326; VL domain - Ab326) VH: QVQLQQSGAELAKPGASVKLSCKASGYTFTSYWMHWVKQRPGQGLEWIGYIKPSSGYTKYNQKFKDKATLTADKSSSTAYMQLSSLTYEDSAVYYCARDYYGSSSWFAYWGQGTLVTVSA VL: DIVMTQSQRFMSTSVGDRVSVTCKASQNVGTNVAWYQQKPGQSPKALIYSASYRYSGVPDRFTGSGSGTDFTLTISNVQSEDLAEYFCQQYNSYPYMYTFGGGTKLEIKR",effect on the anti-proliferative effect of crizotinib,[1],enhanced
same,ALK turnover,[2],−
same,mouse ALK binding,[3],+++
same,Bin/Domain (bin),[4],2
same,phosphorylated ALK in tumor homogenates,[5],reduction
same,total ALK in tumor homogenates,[5],reduction
same,effect on ALK activity (ALK inhibitory or ALK agonistic antibody),[6],inhibitory
same,ALK phosphorylation,[6]; effect in words,inhibitor
same,tumor volume,[7],reduced
same,Kd,[8],0.94 nM
same,Kd,[9],0.58 nM
same,NB1 cell morphology,[10],rounded morphology

# — patent US11091559B2, “Anti-ALK antibodies and methods for use thereof” (Celldex Therapeutics, Inc., priority 2015, dated 2021)
